Reference: publication PMC5945547, “SAAV2152 is a single-stranded DNA binding protein: the third SSB in Staphylococcus aureus” (Oncotarget, 2018)

Experiments:
[1] = target: SaSsbC with a His tag (product of S. aureus ssb gene SAAV2152) (S. aureus subsp. aureus ED98); test: cross-linking; glutaraldehyde (0.1% to 5%), SaSsbC 2.5 uM, 4 C, 30 min, Coomassie-stained SDS-PAGE; self-association, tetramer
[2] = target: SaSsbC with a His tag (product of S. aureus ssb gene SAAV2152) (S. aureus subsp. aureus ED98); test: SEC; gel filtration, Superdex 200 prep grade, SaSsbC 2 mg/mL in Buffer B (20 mM HEPES, 100 mM NaCl, pH 7.0), column calibrated with proteins of known mass; self-association, tetramer
SaPriA = target: T1, SaPriA (Staphylococcus aureus, UniProt Q2G266); test: ATPase assay, thin-layer chromatography with autoradiography; assay type: biochemical; settings: 0.4 mM [γ-32P]ATP, 0.12 μM SaPriA, 0.1 μM PS4/PS3-dT30 DNA, 40 mM Tris pH 8.0, 10 mM NaCl, 2 mM DTT, 2.5 mM MgCl2, 1 h; labelled compound
T1 construct: gene priA; recombinant
T1 sequence (Q2G266 1-802): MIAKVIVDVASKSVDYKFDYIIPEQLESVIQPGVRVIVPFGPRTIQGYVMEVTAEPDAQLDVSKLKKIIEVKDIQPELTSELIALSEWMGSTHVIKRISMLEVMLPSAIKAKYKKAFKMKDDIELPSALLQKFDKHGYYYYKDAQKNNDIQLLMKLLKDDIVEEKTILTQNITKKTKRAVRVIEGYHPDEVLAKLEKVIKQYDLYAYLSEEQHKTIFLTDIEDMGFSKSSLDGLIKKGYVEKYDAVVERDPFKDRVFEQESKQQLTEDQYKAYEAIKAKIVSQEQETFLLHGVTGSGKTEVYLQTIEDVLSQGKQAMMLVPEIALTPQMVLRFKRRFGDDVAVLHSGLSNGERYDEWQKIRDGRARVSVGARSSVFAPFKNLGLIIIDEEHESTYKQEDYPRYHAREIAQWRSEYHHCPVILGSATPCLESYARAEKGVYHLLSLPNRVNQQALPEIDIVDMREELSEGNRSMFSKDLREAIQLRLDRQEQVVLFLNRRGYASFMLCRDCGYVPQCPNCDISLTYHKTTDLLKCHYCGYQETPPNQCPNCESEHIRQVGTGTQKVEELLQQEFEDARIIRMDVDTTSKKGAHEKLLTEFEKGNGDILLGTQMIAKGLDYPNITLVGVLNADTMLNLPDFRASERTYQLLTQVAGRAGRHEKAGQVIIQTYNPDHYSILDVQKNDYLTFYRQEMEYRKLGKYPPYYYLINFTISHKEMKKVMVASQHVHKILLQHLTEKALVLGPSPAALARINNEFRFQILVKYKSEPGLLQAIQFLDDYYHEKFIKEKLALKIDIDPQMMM

stoichiometry N [1]	stoichiometry N [2]	Compound	ATPase assay, thin-layer chromatography with autoradiography (SaPriA)
4	4	SaSsbC with a His tag (product of S. aureus ssb gene SAAV2152) (natural protein)	–
–	–	Nc1ncnc2c1ncn2[C@@H]1O[C@H](COP(=O)(O)OP(=O)(O)OP(=O)(O)O)[C@@H](O)[C@H]1O [ATP]	SaPriA could hydrolyze ATP on its own
